Data on two molecules can be found in article doi:10.1101/2025.06.05.658052 (bioRxiv, 2025).

Series [1] concerns EppR (TetR-like error-prone polymerase regulator) (Acinetobacter baumannii ATCC 17978). As to the kind of experiment: EMSA. On the technique in general: In EMSA bound probe runs differently from free probe, usually more slowly.
The series “SEC” deals with the molecule itself. The series can be described thus: SEC.

For orientation: Kd means the concentration at which binding is half-saturated.

Molecule “recA regulatory region (promoter + 5'-UTR), 145 bp” registered an equilibrium dissociation constant (Kd) in series [1] of 1.1 µM.

B1: His-tagged A. baumannii RecA (natural protein, Acinetobacter baumannii, UniProt A3M645 1-349, looked up)
chain: MDENKSKALQAALSQIEKQFGKNTVMRLGDNTVQAVEAVSTGSLTLDIALGIGGLPKGRIIEIYGPESSGKTTMTLQAIAQCQKSGGTCAFIDAEHALDPQYARKLGVDIDNLLVSQPDNGEQALEIADMLVRSGAIDLIVVDSVAALTPKAEIEGEMGDSHMGLQARLMSQALRKITGNAKRSNCMVIFINQIRMKIGVMFGSPETTTGGNALKFYASVRLDIRRIGQVKEGDEIVGSETKVKVVKNKMAPPFKEAIFQILYGKGTNQLGELVDLAVQQDIVQKAGAWYSYQGNKIGQGKNNVIRYFEENTQIAEEIERNIREQLLTTGTNGAVQIEDEEEPDLLLES
With B1, in the series “SEC”, the binding result is listed as “binds”.
